{
  "source": "the supplement of paper PMC10567573",
  "parents": {"B1": {"name": "SPOPL (parent)", "chain": "AKREETKAMESQRAYRFVQGKDWG"}},
  "data": [
    {"variants_of": "B1", "assay": "protein stability index of a GFP-peptide fusion (GPS, HEK-293T) (PSI 1-6); higher = more stable", "details": "c terminus: a fixed tail appended", "values": [
      {"variant": "AKREEPKAMESQRAYRFVQGKDWG", "note": "[T6P]", "protein stability index": 2.91},
      {"variant": "AKREEDKAMESQRAYRFVQGKDWG", "note": "[T6D]", "protein stability index": 3.18},
      {"variant": "AKREEWKAMESQRAYRFVQGKDWG", "note": "[T6W]", "protein stability index": 2.48},
      {"variant": "AKREELKAMESQRAYRFVQGKDWG", "note": "[T6L]", "protein stability index": 3.89},
      {"variant": "AKREEHKAMESQRAYRFVQGKDWG", "note": "[T6H]", "protein stability index": 3.2},
      {"variant": "AKREEAKAMESQRAYRFVQGKDWG", "note": "[T6A]", "protein stability index": 2.48},
      {"variant": "AKREEKKAMESQRAYRFVQGKDWG", "note": "[T6K]", "protein stability index": 2.89},
      {"variant": "AKREESKAMESQRAYRFVQGKDWG", "note": "[T6S]", "protein stability index": 3.58},
      {"variant": "AKREEYKAMESQRAYRFVQGKDWG", "note": "[T6Y]", "protein stability index": 2.46},
      {"variant": "AKREEIKAMESQRAYRFVQGKDWG", "note": "[T6I]", "protein stability index": 2.34},
      {"variant": "AKREECKAMESQRAYRFVQGKDWG", "note": "[T6C]", "protein stability index": 3.06},
      {"variant": "AKREENKAMESQRAYRFVQGKDWG", "note": "[T6N]", "protein stability index": 3.34},
      {"variant": "AKREERKAMESQRAYRFVQGKDWG", "note": "[T6R]", "protein stability index": 2.67},
      {"variant": "AKREEQKAMESQRAYRFVQGKDWG", "note": "[T6Q]", "protein stability index": 3.54},
      {"variant": "AKREEEKAMESQRAYRFVQGKDWG", "note": "[T6E]", "protein stability index": 3.51},
      {"variant": "AKREEGKAMESQRAYRFVQGKDWG", "note": "[T6G]", "protein stability index": 2.56},
      {"variant": "AKREEMKAMESQRAYRFVQGKDWG", "note": "[T6M]", "protein stability index": 2.32},
      {"variant": "AKREEVKAMESQRAYRFVQGKDWG", "note": "[T6V]", "protein stability index": 2.29},
      {"variant": "AKREMTKAMESQRAYRFVQGKDWG", "note": "[E5M]", "protein stability index": 2.28},
      {"variant": "AKRELTKAMESQRAYRFVQGKDWG", "note": "[E5L]", "protein stability index": 3.15},
      {"variant": "AKRETTKAMESQRAYRFVQGKDWG", "note": "[E5T]", "protein stability index": 2.9},
      {"variant": "AKREATKAMESQRAYRFVQGKDWG", "note": "[E5A]", "protein stability index": 2.67},
      {"variant": "AKRESTKAMESQRAYRFVQGKDWG", "note": "[E5S]", "protein stability index": 2.32},
      {"variant": "AKREWTKAMESQRAYRFVQGKDWG", "note": "[E5W]", "protein stability index": 1.75},
      {"variant": "AKREFTKAMESQRAYRFVQGKDWG", "note": "[E5F]", "protein stability index": 2.4},
      {"variant": "AKREDTKAMESQRAYRFVQGKDWG", "note": "[E5D]", "protein stability index": 4.16},
      {"variant": "AKREITKAMESQRAYRFVQGKDWG", "note": "[E5I]", "protein stability index": 2.26},
      {"variant": "AKREKTKAMESQRAYRFVQGKDWG", "note": "[E5K]", "protein stability index": 2.79},
      {"variant": "AKREYTKAMESQRAYRFVQGKDWG", "note": "[E5Y]", "protein stability index": 1.71},
      {"variant": "AKRERTKAMESQRAYRFVQGKDWG", "note": "[E5R]", "protein stability index": 2.38},
      {"variant": "AKREVTKAMESQRAYRFVQGKDWG", "note": "[E5V]", "protein stability index": 3.02},
      {"variant": "AKREHTKAMESQRAYRFVQGKDWG", "note": "[E5H]", "protein stability index": 2.28},
      {"variant": "AKRECTKAMESQRAYRFVQGKDWG", "note": "[E5C]", "protein stability index": 2.37},
      {"variant": "AKREGTKAMESQRAYRFVQGKDWG", "note": "[E5G]", "protein stability index": 2.35},
      {"variant": "AKREQTKAMESQRAYRFVQGKDWG", "note": "[E5Q]", "protein stability index": 2.32},
      {"variant": "AKREPTKAMESQRAYRFVQGKDWG", "note": "[E5P]", "protein stability index": 2.76},
      {"variant": "AKRENTKAMESQRAYRFVQGKDWG", "note": "[E5N]", "protein stability index": 2.76},
      {"variant": "AKREETKEMESQRAYRFVQGKDWG", "note": "[A8E]", "protein stability index": 4.1},
      {"variant": "AKREETKYMESQRAYRFVQGKDWG", "note": "[A8Y]", "protein stability index": 2.77},
      {"variant": "AKREETKIMESQRAYRFVQGKDWG", "note": "[A8I]", "protein stability index": 2.53},
      {"variant": "AKREETKGMESQRAYRFVQGKDWG", "note": "[A8G]", "protein stability index": 2.48},
      {"variant": "AKREETKMMESQRAYRFVQGKDWG", "note": "[A8M]", "protein stability index": 2.87},
      {"variant": "AKREETKVMESQRAYRFVQGKDWG", "note": "[A8V]", "protein stability index": 2.42},
      {"variant": "AKREETKPMESQRAYRFVQGKDWG", "note": "[A8P]", "protein stability index": 2.9},
      {"variant": "AKREETKQMESQRAYRFVQGKDWG", "note": "[A8Q]", "protein stability index": 3.75},
      {"variant": "AKREETKDMESQRAYRFVQGKDWG", "note": "[A8D]", "protein stability index": 4.01},
      {"variant": "AKREETKCMESQRAYRFVQGKDWG", "note": "[A8C]", "protein stability index": 2.75},
      {"variant": "AKREETKRMESQRAYRFVQGKDWG", "note": "[A8R]", "protein stability index": 3.43},
      {"variant": "AKREETKHMESQRAYRFVQGKDWG", "note": "[A8H]", "protein stability index": 3.28},
      {"variant": "AKREETKLMESQRAYRFVQGKDWG", "note": "[A8L]", "protein stability index": 2.38},
      {"variant": "AKREETKNMESQRAYRFVQGKDWG", "note": "[A8N]", "protein stability index": 3.03},
      {"variant": "AKREETKTMESQRAYRFVQGKDWG", "note": "[A8T]", "protein stability index": 3.37},
      {"variant": "AKREETKWMESQRAYRFVQGKDWG", "note": "[A8W]", "protein stability index": 1.37},
      {"variant": "AKREETKKMESQRAYRFVQGKDWG", "note": "[A8K]", "protein stability index": 3.44},
      {"variant": "AKREETKSMESQRAYRFVQGKDWG", "note": "[A8S]", "protein stability index": 3.37},
      {"variant": "AKREETKFMESQRAYRFVQGKDWG", "note": "[A8F]", "protein stability index": 2.35},
      {"variant": "AKREETKAMESGRAYRFVQGKDWG", "note": "[Q12G]", "protein stability index": 2.76},
      {"variant": "AKREETKAMESYRAYRFVQGKDWG", "note": "[Q12Y]", "protein stability index": 2.69},
      {"variant": "AKREETKAMESNRAYRFVQGKDWG", "note": "[Q12N]", "protein stability index": 3.35},
      {"variant": "AKREETKAMESSRAYRFVQGKDWG", "note": "[Q12S]", "protein stability index": 3.4},
      {"variant": "AKREETKAMESFRAYRFVQGKDWG", "note": "[Q12F]", "protein stability index": 2.13},
      {"variant": "AKREETKAMESRRAYRFVQGKDWG", "note": "[Q12R]", "protein stability index": 2.61},
      {"variant": "AKREETKAMESLRAYRFVQGKDWG", "note": "[Q12L]", "protein stability index": 1.82},
      {"variant": "AKREETKAMESIRAYRFVQGKDWG", "note": "[Q12I]", "protein stability index": 1.99},
      {"variant": "AKREETKAMESHRAYRFVQGKDWG", "note": "[Q12H]", "protein stability index": 2.48},
      {"variant": "AKREETKAMESARAYRFVQGKDWG", "note": "[Q12A]", "protein stability index": 2.63},
      {"variant": "AKREETKAMESWRAYRFVQGKDWG", "note": "[Q12W]", "protein stability index": 2.4},
      {"variant": "AKREETKAMESCRAYRFVQGKDWG", "note": "[Q12C]", "protein stability index": 2.55},
      {"variant": "AKREETKAMESTRAYRFVQGKDWG", "note": "[Q12T]", "protein stability index": 2.78},
      {"variant": "AKREETKAMESVRAYRFVQGKDWG", "note": "[Q12V]", "protein stability index": 2.06},
      {"variant": "AKREETKAMESDRAYRFVQGKDWG", "note": "[Q12D]", "protein stability index": 3.85},
      {"variant": "AKREETKAMESERAYRFVQGKDWG", "note": "[Q12E]", "protein stability index": 3.65},
      {"variant": "AKREETKAMESMRAYRFVQGKDWG", "note": "[Q12M]", "protein stability index": 2.39},
      {"variant": "AKREETKAMESPRAYRFVQGKDWG", "note": "[Q12P]", "protein stability index": 2.97},
      {"variant": "AKREETKAMESKRAYRFVQGKDWG", "note": "[Q12K]", "protein stability index": 2.94},
      {"variant": "AKREETKAKESQRAYRFVQGKDWG", "note": "[M9K]", "protein stability index": 3.35},
      {"variant": "AKREETKAYESQRAYRFVQGKDWG", "note": "[M9Y]", "protein stability index": 2.83},
      {"variant": "AKREETKATESQRAYRFVQGKDWG", "note": "[M9T]", "protein stability index": 3.66},
      {"variant": "AKREETKAAESQRAYRFVQGKDWG", "note": "[M9A]", "protein stability index": 3.66},
      {"variant": "AKREETKAQESQRAYRFVQGKDWG", "note": "[M9Q]", "protein stability index": 3.69},
      {"variant": "AKREETKALESQRAYRFVQGKDWG", "note": "[M9L]", "protein stability index": 3},
      {"variant": "AKREETKAHESQRAYRFVQGKDWG", "note": "[M9H]", "protein stability index": 3.25},
      {"variant": "AKREETKASESQRAYRFVQGKDWG", "note": "[M9S]", "protein stability index": 3.87},
      {"variant": "AKREETKAIESQRAYRFVQGKDWG", "note": "[M9I]", "protein stability index": 3.55},
      {"variant": "AKREETKAWESQRAYRFVQGKDWG", "note": "[M9W]", "protein stability index": 2.74},
      {"variant": "AKREETKAGESQRAYRFVQGKDWG", "note": "[M9G]", "protein stability index": 3.45},
      {"variant": "AKREETKACESQRAYRFVQGKDWG", "note": "[M9C]", "protein stability index": 3.58},
      {"variant": "AKREETKAEESQRAYRFVQGKDWG", "note": "[M9E]", "protein stability index": 3.85},
      {"variant": "AKREETKADESQRAYRFVQGKDWG", "note": "[M9D]", "protein stability index": 3.71},
      {"variant": "AKREETKARESQRAYRFVQGKDWG", "note": "[M9R]", "protein stability index": 3.11},
      {"variant": "AKREETKANESQRAYRFVQGKDWG", "note": "[M9N]", "protein stability index": 3.33},
      {"variant": "AKREETKAPESQRAYRFVQGKDWG", "note": "[M9P]", "protein stability index": 3.27},
      {"variant": "AKREETKAVESQRAYRFVQGKDWG", "note": "[M9V]", "protein stability index": 3.43},
      {"variant": "AKREETKAFESQRAYRFVQGKDWG", "note": "[M9F]", "protein stability index": 2.79}
    ]}
  ]
}
